# Laboratory results published in the RNAGym collection of RNA variant scans (doi:10.1073/pnas.2313332121).
# B1: TPR t1 (parent)
# chain: GACCAAUCUGCCCUCAGAGCUCGAGAACAUCUUCGGAUGCAGAGGAGGCAGGCUUCGGUGGCGCGAUAGCGCCAACGUCCUCAACCUCCAAUGCAUCCCACCACAUGAUGAUGCCUGAAGAGCCUUGGUUUUUUG
# Variants of: B1
# Assay: polymerase ribozyme fitness, log enrichment relative to wild type (log ratio); higher = more active; in vitro selection for triplet polymerase activity
# Method in brief: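 PCR was used to build mutant libraries for each subunit of a heterodimeric triplet polymerase ribozyme, which were then transcribed. A single in vitro selection round, in triplicate, used a frozen incubation at −7 °C and recovered extended constructs by gel excision, streptavidin beads and RT-PCR. Fitness is the logarithm of genotype enrichment relative to wild-type enrichment, averaged over replicates with inverse-variance weights. The logarithm is base 2, and after Illumina sequencing only genotypes with ≥10 input reads and ≥1 read per output were kept.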
row,Variant,polymerase ribozyme fitness (log ratio)
1,C15A A18U C22G U92G,-6.59
2,C15A A29G C72A U81A U87C G120C,-2.96
3,C15A A37G C79G,-3.88
4,C15A A37U,-2.28
5,C15A A37U G39A G42U A90U,-3.14
6,C15A A41U,-3.45
7,C15A A41U G60C U133A,-3.25
8,C15A A46C A84C A91U,-4.15
9,C15A A46C G52U C56U C115G,-6.86
10,C15A A46C G63A G113C C114U,-6.03
11,C15A A46U G117U C124U U132C,-0.364
12,C15A A68G C97A A103G,-6.8
13,C15A A74G U81G U112C,-3.53
14,C15A A111G,-2.08
15,C15A C20A A118U,-3.93
16,C15A C20A G71U A118U,-4.11
17,C15A C20A G107A A121G,-5.21
18,C15A C20U U109A,-5.4
19,C15A C22A U96A C124U,-5.05
20,C15A C28G G36A C40U G110C U112C C115A G117U G120A,-3.11
21,C15A C49G,-2.46
22,C15A C56A,-0.645
23,C15A C56U,-1.71
24,C15A C70A,-2.47

row,Variant,polymerase ribozyme fitness (log ratio)
1,C15A C70U,-2.96
2,C15A C72G C104U,-1.9
3,C15A C72U G93U C114G,-5.25
4,C15A C73G G117A G127U,-4.62
5,C15A C82A,-3.12
6,C15A C82G G117C G120C,-5.78
7,C15A C88U,-2.17
8,C15A C88U C123U,-1.37
9,C15A G19A A50C A74G C102A C104A A121U U125G,-6.51
10,C15A G36A C72U U116A G120U,-4.34
11,C15A G39A,-2.28
12,C15A G39C,-3.41
13,C15A G44A G45U G48U C62U C73U U78G,-5.47
14,C15A G47U C115A A121C U133C,-3.65
15,C15A G47U G61U,-3.15
16,C15A G47U G61U G110A,-3.43
17,C15A G48C,-3.05
18,C15A G48U A50G C97U,-4.67
19,C15A G52A G61U C88A A95C U112C C124U,-1.64
20,C15A G52A G117U,0.0979
21,C15A G52U U55G,-1.52
22,C15A G57U C64G,-6.59
23,C15A G61A,-2.09
24,C15A G61C,-4.23

row,Variant,polymerase ribozyme fitness (log ratio)
1,C15A G61U A105C,-4.93
2,C15A G61U C89U G122U C124G G135A,-0.759
3,C15A G63A,-2.56
4,C15A G63C C88U,-3.01
5,C15A G63U C72U U129G U131C,-4.85
6,C15A G69C,-3.57
7,C15A G120A,0.181
8,C15A U32C G71C,-2.71
9,C15A U33A G42C U78C C79U A111G,-6.15
10,C15A U78A,-2.6
11,C15A U109G G113A U131A,-5.16
12,C15G A16C G51U G61U G71C C79A U112G,-6.41
13,C15G A16U C72U U109A C115U,-6.16
14,C15G A16U G69C,-4.45
15,C15G A18U,-3.36
16,C15G A18U C70U U116A G120U,-1.19
17,C15G A29G C88G,-3.43
18,C15G A37C A46U C53A C56G,-4.78
19,C15G A37U A66G C123A,-3.27
20,C15G A46G C56G,-4.02
21,C15G A50U U109A,-6.25
22,C15G A83U C115G C123A,-5.38
23,C15G A84U G120U U129G,-5.84
24,C15G A118U U131A,-1.47

row,Variant,polymerase ribozyme fitness (log ratio)
1,C15G C28A G44U G52U G69U,-5.21
2,C15G C34A,-5.11
3,C15G C53G C72A U81A G120C C123G,-2.32
4,C15G C56U U87A C115U U131C,-0.823
5,C15G C62U,-1.91
6,C15G C70U,-3.1
7,C15G C70U C82G C88A,-4.4
8,C15G C72U,-3.01
9,C15G C85U,-3.82
10,C15G C94A,-3.63
11,C15G C97U,-2.23
12,C15G C98G G120A C123A C124A,-6.86
13,C15G C98U,-4.22
14,C15G C101A,-3.78
15,C15G C101U,-2.56
16,C15G C114U,-4.3
17,C15G C115A,-2.88
18,C15G G39U G48A A68U U112G,-7.39
19,C15G G42A C88G,-4.44
20,C15G G44C G47A G69U G135U,-3.36
21,C15G G44C G57U,-3.85
22,C15G G47U A83U A108U C114G U116G G117C,-6.68
23,C15G G52U U87G,-3.21
24,C15G G57A,-4.5

row,Variant,polymerase ribozyme fitness (log ratio)
1,C15G G60C U130C,-1.49
2,C15G G61C A119G,-0.591
3,C15G G63A,-3.35
4,C15G G63A U116G,-3.64
5,C15G G63U,-3.98
6,C15G G71U C72U A95U,-4.5
7,C15G G110A,-3.78
8,C15G G117C,-3.41
9,C15G G120C,-0.975
10,C15G U32C A43G G45U C89G,-4.49
11,C15G U32C C49U U87G C123A,-3.12
12,C15G U55C A75G,-3.14
13,C15G U92G C97U A118U,-4.66
14,C15G U106G G117C,0.15
15,C15G U112A,-1.44
16,C15U A16U C76A C115A C123A U130C,-5.56
17,C15U A16U G42C G61A C89A,-1.37
18,C15U A16U G58C C72U C80A A111C,-6.92
19,C15U A18G A37G U54A A100U C115A,-5.29
20,C15U A27U,-4.81
21,C15U A29U A37U C62G C124G G135C,-2.45
22,C15U A37G G71A C80U A118U U133A,-4.3
23,C15U A37U C62U,-1.85
24,C15U A41C G48A C53U C56U C124U,-1.63

row,Variant,polymerase ribozyme fitness (log ratio)
1,C15U A41U,-2.32
2,C15U A43U G45C C94G,-4.68
3,C15U A50U C76U U78A,-3.61
4,C15U A50U G63C C89U,-3.78
5,C15U A50U G120C,-0.665
6,C15U A66G G71A C98A G113U,-7.64
7,C15U A74G C88A A91C,-2.13
8,C15U A95U,-2.49
9,C15U C22G G61C C114G,-7.09
10,C15U C22G U54G G71U G93A G122A C123U,-4.87
11,C15U C34G C53U C114U,-5.11
12,C15U C56A G69C U78C A83G U112C U116A,-6.66
13,C15U C56G A90C G93A G117U G127A,-3.28
14,C15U C56G G60U U78G U92A,-6.42
15,C15U C56U,-1.21
16,C15U C64U G77A G93C C98U G120A C124G,-1.82
17,C15U C70U G71A,-1.62
18,C15U C72A C82U,-1.42
19,C15U C73U C94A A111C,-2.53
20,C15U C76G G77C C123A,-2.59
21,C15U C79G C98U,-4.8
22,C15U C79U A111U A121U,-3.53
23,C15U C82G A108G A111G A121C,-6.58
24,C15U C86U C102A,-4.01

row,Variant,polymerase ribozyme fitness (log ratio)
1,C15U C99U C102A G113U A118G,-7.09
2,C15U C114A,-3.36
3,C15U C124G,-0.245
4,C15U G23A A111U,-7.2
5,C15U G35C G69U,-2.64
6,C15U G36A,-1.76
7,C15U G36C U112C,-1.24
8,C15U G39A G117C G120A,-3.48
9,C15U G39C G71A,-2.36
10,C15U G42C,-2.79
11,C15U G42C A46U,-3.23
12,C15U G42C C76U U106A,-4.25
13,C15U G42C G71U,-3.24
14,C15U G42U G44C C94U,-3.39
15,C15U G44A G47A A105U,-5.8
16,C15U G44C A83U A100C,-3.3
17,C15U G44U,-2.59
18,C15U G44U G71C,-2.64
19,C15U G45C G47A C53U U59A A90G C101U,-5.35
20,C15U G48A,-1.7
21,C15U G48C C72G U112A,-0.505
22,C15U G52A A91G,-2.95
23,C15U G52A C102G C124A,-5.21
